# Reference: patent US10729634B2, “Sex hormone-binding globulin for use as a medicament” (FUNDACIÓ HOSPITAL UNIVERSITARI VALL D'HEBRON—INSTITUT DE …, priority 2013, dated 2020)
# B1: SHBG: native human protein purified from healthy human serums (included SEQ ID NO: 1); in mice and HepG2 expressed from human shbg transgene/vector (protein, listed as Homo sapiens)
# chain: MESRGPLATSRLLLLLLLLLLRHTRQGWALRPVLPTQSAHDPPAVHLSNGPGQEPIAVMTFDLTKITKTSSSFEVRTWDPEGVIFYGDTNPKDDWFMLGLRDGRPEIQLHNHWAQLTVGAGPRLDDGRWHQVEVKMEGDSVLLEVDGEEVLRLRQVSGPLTSKRHPIMRIALGGLLFPASNLRLPLVPALDGCLRRDSWLDKQAEISASAPTSLRSCDVESNPGIFLPPGTQAEFNLRDIPQPHAEPWAFSLDLGLKQAAGSGHLLALGTPENPSWLSLHLQDQKVVLSSGSGPGLDLPLVLGLPLQLKLSMSRVVLSQGSKMKALALPPLGLAPLLNLWAKPQGRLFLGALPGEDSSTSFCLNGLWAQGQRLDVDQALNRSHEIWTHSCPQSPGNGTDASH
# Tests used:
# [1] = tested on: human mature adipocytes from obese subjects; test: Lipolysis assay (glycerol release) in human mature adipocytes; assay type: cell-based; settings: SHBG 10 nM and 30 nM, 16h incubation, vs control buffer
# Procedure: A similar in vitro experiment as in Example 1 was performed but using human mature adipocytes from obese subjects instead of the HepG2 cells.
# The cells were maintained in DMEM supplemented with 10% foetal bovine serum (FBS) and antibiotics, cultured to confluence, washed and incubated with Lipolysis Assay Buffer containing vehicle (control—C), Isoproterenol (positive control—ISO, 3 μM) or SHBG at different final cell culture concentrations (10 nM and 30 nM). SHBG was from native human protein purified from healthy human serums (it included the amino acid sequence SEQ ID NO: 1). After 16h incubation, media was collected and glycerol concentration was assessed using a Glycerol Detection Kit (Zenbio).
# HepG2 cells = test: SHBG over-expression (pCMV-SHBG) in stably transfected HepG2 cells; assay type: cell-based, human; settings: SHBG over-expressed (pCMV-SHBG) vs pCMV control
# Source text: In order to elucidate a possible mechanism of action of the SHBG, HepG2 cells (catalog no. HB-8065; ATCC) maintained in DMEM supplemented with 10% FBS and antibiotics) were stably transfected with a vector expressing SHBG (pCMV-SHBG). The vector pCMV-SHBG and the control (pCMV-empty) were the ones used and mentioned in several publications, being the first in Bocchinfuso W P et al. “Expression and differential glycosylation of human sex hormone-binding globulin by mammalian cell lines”, Mol Endocrinol-1991, Vol. No. 5(11)., pp. 1723-1729.
# From all panels in FIG. 20 it can be deduced that SHBG regulates hepatocyte lipid content by modulating ACC levels in HepG2 cells. (a) SHBG mRNA levels were determined in relation to 18S RNA in pCMV and pCMV-SHBG stably transfected HepG2 cells (FIG. 20 a). SHBG protein accumulation in the medium was measured using an ELISA in pCMV and pCMV-SHBG stably transfected HepG2 cells (FIG. 20 b). ACC mRNA levels were determined in relation to 18S mRNA in pCMV and pCMV-SHBG stably transfected HepG2 cells (FIG. 20 c). SHBG mRNA levels were determined in relation to 18S RNA in shControl and shSHBG stably transfected HepG2 cells (FIG. 20 d). SHBG protein accumulation in the medium was measured using an ELISA in shControl and shSHBG stably transfected HepG2 cells (FIG. 20 e). […]
molecule,measurement,setting,value
B1,final glycerol concentration (lipolysis),[1],greater than the observed in the non-treated mature adipocytes
same,ACC expression,HepG2 cells,the expression of ACC is reduced
same,total TG content,HepG2 cells,the total TG is reduced
